Data from US6461630.

Molecular target: demineralized, guanidine-extracted bovine collagen carrier matrix material (bovine) (UniProt P02453)
Experiment: OP-1 in 47.5% ethanol/0.01% TFA incubated 3 h with bovine collagen matrix; fraction bound to the matrix before lyophilization

Sequence of OP-1 (P18075 293-431 limits assumed): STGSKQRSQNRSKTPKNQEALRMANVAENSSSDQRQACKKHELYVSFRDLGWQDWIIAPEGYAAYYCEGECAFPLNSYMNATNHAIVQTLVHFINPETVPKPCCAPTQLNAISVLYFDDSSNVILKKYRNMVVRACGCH

% OP-1 bound at 3 hr: 53 to 64%
Substance: OP-1 (from UniProt P18075 293-431) (ligand)
